Reference: the supplement of paper PMC10724198
± gives the standard deviation of the averaged measurements.

tested on: Saccharomyces cerevisiae; experiment: protein stability index of tFT-peptide fusion (C-terminal peptide) (PSI (0-1 scale)); higher = more stable (slower turnover); settings: genetic background: wild type; temperature: 30 C
Protocol: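 Multiplexed protein stability (MPS) profiling in S. cerevisiae. Random 12-aa peptides (tFT-X12 library) are fused to the C-terminus of a sfGFP-mCherry tandem fluorescent timer, after mCherry and a GGGS linker. Cells are FACS-sorted into 8 mCherry/sfGFP bins and deep-sequenced. The protein stability index (PSI) is the read-weighted bin average, scaled from 0 (unstable) to 1 (stable). Only peptides with >10 reads are reported; cells were grown at 30 °C in SC-His with glucose.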
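Further: PSI is a weighted mean of sequencing reads over stability bins, variants kept only with over 10 reads, mCherry proximal and sfGFP distal, peptide attached via GGGS linker.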

Question: Which protein stability index does the source give for FEHFKCRRRPVI here?
Answer: 0.723 ± 0.044

Question: Which protein stability index does the source give for VWVSRPWGRGGL here?
Answer: 0.681 ± 0.038

Question: Which protein stability index does the source give for PPPPATRPSPCY here?
Answer: 0.706 ± 0.048

Question: VCVVALCLPHLP was tested. Which protein stability index did it give?
Answer: 0.583 ± 0.012

Question: How did the protein stability index turn out when LPSPPASSPRRS was run?
Answer: 0.684 ± 0.025

Question: How did the protein stability index turn out when PPHSTPPTGRPG was run?
Answer: 0.753 ± 0.014

Question: RGNPLLWHSSPR was tested. Which protein stability index did it give?
Answer: 0.657 ± 0.051

Question: For IGGRRGVTGIFV, which protein stability index is on record?
Answer: 0.699 ± 0.064

Question: With KPALPPITPNLC as the sequence, how does the protein stability index read?
Answer: 0.6727 ± 0.0036

Question: How did the protein stability index turn out when RLRPLSPPTLCD was run?
Answer: 0.665 ± 0.044

Question: For GVDCPGPKRDRK, which protein stability index is on record?
Answer: 0.626 ± 0.011

Question: How did the protein stability index turn out when FKRPQFFSAFFP was run?
Answer: 0.612 ± 0.011

Question: SYRGIGVGLCAG was tested. Which protein stability index did it give?
Answer: 0.622 ± 0.016

Question: Which protein stability index does the source give for WHRTGPFCGFPC here?
Answer: 0.766 ± 0.17

Question: ACLCFIEFRCLL was tested. Which protein stability index did it give?
Answer: 0.547 ± 0.017

Question: For RKTSIKNKKKKI, which protein stability index is on record?
Answer: 0.693 ± 0.059

Question: Which protein stability index does the source give for AVVFCSIPCLRV here?
Answer: 0.575 ± 0.052

Question: SRFAAGSRVLFL was tested. Which protein stability index did it give?
Answer: 0.758 ± 0.044

Question: How did the protein stability index turn out when FLSTGIGKGVFL was run?
Answer: 0.694 ± 0.035

Question: SSALPPLLAFFL was tested. Which protein stability index did it give?
Answer: 0.6808 ± 0.0046

Question: For PVSVSSFFLSRF, which protein stability index is on record?
Answer: 0.767 ± 0.21

Question: Which protein stability index does the source give for CGGFGGLYVVVF here?
Answer: 0.545 ± 0.014

Question: For PRRPLPPSPPRE, which protein stability index is on record?
Answer: 0.729 ± 0.022

Question: How did the protein stability index turn out when SPPPAPSHPPSP was run?
Answer: 0.73 ± 0.05

Question: Which protein stability index does the source give for QGEKDFRMGSIK here?
Answer: 0.632 ± 0.015

Question: Which protein stability index does the source give for VGAFEGDWGVRH here?
Answer: 0.671 ± 0.099

Question: Which protein stability index does the source give for LSVFWRGSLWTL here?
Answer: 0.635 ± 0.023

Question: How did the protein stability index turn out when VAGGTCGGRACC was run?
Answer: 0.694 ± 0.099

Question: Which protein stability index does the source give for AHFSRRCKGLFG here?
Answer: 0.741 ± 0.01

Question: For VRVECGVWGSVS, which protein stability index is on record?
Answer: 0.65806 ± 0.00012

Question: Which protein stability index does the source give for AGVRFLVIPRPP here?
Answer: 0.7182 ± 0.004

Question: Which protein stability index does the source give for TVSEQWKLLGER here?
Answer: 0.736 ± 0.051

Question: KLQKINKIKNEI was tested. Which protein stability index did it give?
Answer: 0.685 ± 0.032

Question: HLPPMLSCTLRS was tested. Which protein stability index did it give?
Answer: 0.657 ± 0.046

Question: For FAALACKSRLEF, which protein stability index is on record?
Answer: 0.685 ± 0.03

Question: With GGVCVGSFLFDR as the sequence, how does the protein stability index read?
Answer: 0.702 ± 0.029

Question: Which protein stability index does the source give for EKHLKKEIQIKK here?
Answer: 0.76 ± 0.07

Question: Which protein stability index does the source give for CPGLCVFFSPDY here?
Answer: 0.661 ± 0.044

Question: Which protein stability index does the source give for DGVQTVPFSCRL here?
Answer: 0.773 ± 0.28

Question: How did the protein stability index turn out when SMSRSPPPSPPL was run?
Answer: 0.669 ± 0.01

Question: How did the protein stability index turn out when KAIKNKQKFKEK was run?
Answer: 0.726 ± 0.012

Question: For FETGPGSCTACA, which protein stability index is on record?
Answer: 0.68 ± 0.0099

Question: With PAPPPHIPPSPS as the sequence, how does the protein stability index read?
Answer: 0.651 ± 0.023

Question: With DRHLNRPRVKKR as the sequence, how does the protein stability index read?
Answer: 0.758 ± 0.076

Question: LLNAARIGNKGP was tested. Which protein stability index did it give?
Answer: 0.663 ± 0.06

Question: With KNKTKQKTRTET as the sequence, how does the protein stability index read?
Answer: 0.704 ± 0.013

Question: How did the protein stability index turn out when DVLESPVLYPTN was run?
Answer: 0.70948 ± 7.6e-05

Question: For PRRRLVLDDRPT, which protein stability index is on record?
Answer: 0.72823 ± 6.5e-05

Question: For TGIGCRFIWCSK, which protein stability index is on record?
Answer: 0.65 ± 0.037

Question: For SYHRAAPFQSCD, which protein stability index is on record?
Answer: 0.8 ± 0.12

Question: For FGRWVVVYRGLD, which protein stability index is on record?
Answer: 0.625 ± 0.037

Question: For CLGLRFDFYGFV, which protein stability index is on record?
Answer: 0.702 ± 0.065

Question: For SIISRVLDAMAK, which protein stability index is on record?
Answer: 0.724 ± 0.21

Question: RPLSPPSAPTSF was tested. Which protein stability index did it give?
Answer: 0.679 ± 0.0055

Question: For DPLIILLSSVKL, which protein stability index is on record?
Answer: 0.718 ± 0.0099

Question: How did the protein stability index turn out when RKVTSIESGVMT was run?
Answer: 0.655 ± 0.038

Question: Which protein stability index does the source give for AYGGEWGDRGWL here?
Answer: 0.688 ± 0.076

Question: With PLFLSLPLSFPS as the sequence, how does the protein stability index read?
Answer: 0.697 ± 0.0058

Question: With LPILPSPLPPPL as the sequence, how does the protein stability index read?
Answer: 0.69 ± 0.049

Question: With ACDFCIPGVRLD as the sequence, how does the protein stability index read?
Answer: 0.745 ± 0.022

Question: Which protein stability index does the source give for EWVTRQFEGWEG here?
Answer: 0.7474 ± 0.0021

Question: How did the protein stability index turn out when FALSSLTFPLPT was run?
Answer: 0.744 ± 0.094

Question: PVSFPFPISSLS was tested. Which protein stability index did it give?
Answer: 0.701 ± 0.062

Question: With AYDIIPGKFKKI as the sequence, how does the protein stability index read?
Answer: 0.652 ± 0.05

Question: For LDLVFYMFSPFL, which protein stability index is on record?
Answer: 0.618 ± 0.061

Question: With KRIQGEICVPGA as the sequence, how does the protein stability index read?
Answer: 0.682 ± 0.041

Question: How did the protein stability index turn out when KERARNTKRGSD was run?
Answer: 0.641 ± 0.08

Question: Which protein stability index does the source give for VFHCFVSRRRFC here?
Answer: 0.65 ± 0.022

Question: For KKKKKKNNSKTT, which protein stability index is on record?
Answer: 0.739 ± 0.19

Question: Which protein stability index does the source give for RIQYKKKNRKGI here?
Answer: 0.628 ± 0.037

Question: How did the protein stability index turn out when GLQFDPALPLPP was run?
Answer: 0.739 ± 0.022

Question: Which protein stability index does the source give for FFPPAHFAPQPA here?
Answer: 0.719 ± 0.015

Question: Which protein stability index does the source give for SPPFLPCLFHAS here?
Answer: 0.687 ± 0.048

Question: RTPYFGPLAQIA was tested. Which protein stability index did it give?
Answer: 0.622 ± 0.023

Question: For PSPPSRFPPCTP, which protein stability index is on record?
Answer: 0.76987 ± 0.00013

Question: With WGRQSERILRST as the sequence, how does the protein stability index read?
Answer: 0.606 ± 0.046

Question: For TITRIAFRFCYS, which protein stability index is on record?
Answer: 0.556 ± 0.032

Question: How did the protein stability index turn out when PSSPPVLPLHFH was run?
Answer: 0.728 ± 0.019

Question: How did the protein stability index turn out when PTPPLLPPAPSP was run?
Answer: 0.707 ± 0.048

Question: VCGGGEGGERGG was tested. Which protein stability index did it give?
Answer: 0.799 ± 0.057

Question: With LNSTDMNKKKFK as the sequence, how does the protein stability index read?
Answer: 0.719 ± 0.0092

Question: For STVHLPAPAWGS, which protein stability index is on record?
Answer: 0.707 ± 0.033

Question: How did the protein stability index turn out when SLHPPPPPFRLS was run?
Answer: 0.753 ± 0.014

Question: With VGTRGARREVQT as the sequence, how does the protein stability index read?
Answer: 0.734 ± 0.07

Question: Which protein stability index does the source give for WSGKRAKGISEK here?
Answer: 0.682 ± 0.04

Question: With RGWLSAWDENGK as the sequence, how does the protein stability index read?
Answer: 0.704 ± 0.019

Question: RLILLPLFLSDS was tested. Which protein stability index did it give?
Answer: 0.729 ± 0.092

Question: How did the protein stability index turn out when NLFDHIHRSTPS was run?
Answer: 0.761 ± 0.0078

Question: How did the protein stability index turn out when PLCPPPPYPPRS was run?
Answer: 0.745 ± 0.043

Question: EKKNGKEKEKER was tested. Which protein stability index did it give?
Answer: 0.6647 ± 0.0062

Question: PPSGGYFSTCPP was tested. Which protein stability index did it give?
Answer: 0.731 ± 0.03

Question: Which protein stability index does the source give for INLVKRQTVKPP here?
Answer: 0.611 ± 0.076

Question: Which protein stability index does the source give for VWGRQGGGVGRA here?
Answer: 0.715 ± 0.088

Question: Which protein stability index does the source give for CGRFVGEGGGKV here?
Answer: 0.777 ± 0.1

Question: Which protein stability index does the source give for GEGVRGGEWGLD here?
Answer: 0.717 ± 0.053

Question: Which protein stability index does the source give for AVGARRRLEVGD here?
Answer: 0.722 ± 0.016

Question: For SCCTITVPERPR, which protein stability index is on record?
Answer: 0.653 ± 0.045

Question: Which protein stability index does the source give for SFGTLPLNSTAS here?
Answer: 0.644 ± 0.029
